Assay results reported in patent US20260184765A1 (INVENRA, published 2026).

Molecular target: CTLA4 (UniProt P16410 36-161, limits assumed)
Test: Octet BLI, antigen immobilized, B-Body as analyte
Description: In each instance, the antigen is immobilized and the B-Body is the analyte.

Sequence of CTLA4 (P16410 36-161 limits assumed): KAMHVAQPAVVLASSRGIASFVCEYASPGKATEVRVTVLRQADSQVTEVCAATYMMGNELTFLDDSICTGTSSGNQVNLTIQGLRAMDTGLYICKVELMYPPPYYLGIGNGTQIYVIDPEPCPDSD

binding result: no binding
B1: bivalent bispecific B-Body "BC1" (bispecific antibody)
chain 1: not shown
chain 2: EVQLVESGGGLVQPGGSLRLSCAASGFTFSDYDIHWVRQAPGKGLEWVGDITPYDGTTNYADSVKGRFTISADTSKNTAYLQMNSLRAEDTAVYYCARLVGEIATGFDYWGQGTLVTVSSASPREPQVYTDPPSRDELTKNQVSLTCLVKGFYPSDIAVEWESNGQPENNYKTTPPVLDSDGSFFLYSKLTVDKSRWQQGNVFSCSVMHEALHNHYTQKSLSLSGEC
chain 3: not shown
chain 4: QVQLVESGGGVVQPGRSLRLDCKASGITFSNSGMHWVRQAPGKGLEWVAVIWYDGSKRYYADSVKGRFTISRDNSKNTLFLQMNSLRAEDTAVYYCATNDDYWGQGTLVTVSSASTKGPSVFPLAPSSKSTSGGTAALGCLVKDYFPEPVTVSWNSGALTSGVHTFPAVLQSSGLYSLSSVVTVPSSSLGTQTYICNVNHKPSNTKVDKKVEPPKSC
notes: Specific for PD1 (nivolumab variable regions) and Antigen A; four different chains, one of each; also called bivalent 1×1 bispecific construct BC1
